Experiment: folding stability dG unfold (combined trypsin and chymotrypsin); higher = more stable
Description: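 Folding stability of de novo designed mini-proteins (<80 aa, no Cys; designed by TrROS, TrMRF, ProteinMPNN and the joint model) was measured by cDNA display proteolysis with trypsin and chymotrypsin. Each protease was used at 11 concentrations in a threefold dilution series plus a no-protease condition. K50 was inferred by Bayesian fitting of sequencing counts, and dG unfold was derived against a sequence-predicted unfolded-state K50 (Tsuboyama et al. method). Sequences shown include variable-length N-terminal GS-type padding (SAGGSAGG...) inside a display construct carrying a PA tag. Rows were kept only if the AF2 dimer inter-PAE was >15, to exclude likely homo-oligomers.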

Folding stability dG unfold, < -1 kcal/mol:
SAGGSAGGSAAPKPVTVEKTIKVPGNDPEKVKKELEPKGWKVLGVDKNTVKAKITLPPGYKKSAGGSAGGSA [r18_168_JUSTAS]
SKVDIDVERDPGNGHYEYTVRNPNNGYDIKVRIADMDPEHGPIQVEIEPLDDGKKVHYPMPWDDIKDLIKSA [r9_1221_TrROS]
SAGGSAGGSAGGGLDDVPEEELRKILEEHGLPPEEVPPDTEVTLELPEGKPIKVRMTGRSAGGSAGGSAGGS [r10_623_JUSTAS]
SAGGSAGGSAPNQRREVPFYIYFPDDGKMFPFKQEKDPDPPKLKLKLPPEDFPPIEIMPGGSAGGSAGGSAG [r3_454_TrROS]
SAGGSAGGSAGGFVGTLKDYPKILKAAKEVGLKVGKIDPKNNKIYVDPSNPEKLKKAIESSAGGSAGGSAGG [r7_285_TrMRF]
SAGGSAGGSNWTIKVNIVEKPNGKKYIPITMRPPNGNTREGPMPADEIKDRFGMPAEDIAKAISAGGSAGGS [r20_235_TrROS]
SAGGSAGGSAGGSPPSLDYSVRTITTTVEETTFFPDNGTVRSRPVHVTTVVFEPLDSVESAGGSAGGSAGGS [r10_133_JUSTAS]
SAGGGSIEDSNLSEEEIKEILSKLPEPVTVTVKRKEVKKVTYFENGKVKEEKIVEKEKTEVYYFPPKKSAGG [r13_632_JUSTAS]
SAGPEPIKIKILKMQPNPNGTPMIRVKVVPPDGKPGEIPIPQEMLKEGNLDDMTIDDIAEEFPGLKPVSAGG [r19_74_TrROS]
SAGGSAGGSAGGSHTFEFPGRKITIHRNPNGMYPIEIETNGKPREIMIPPNDLDKLLKASAGGSAGGSAGGS [r4_346_TrROS]
SAGGSPITPEIAQELAEEFPNWDIHVEPRKPGEEIRFPNGMRIFDDPNGYRVMVHNPNGKPRQLPVSAGGSA [r2_166_TrROS]
SAGGSAGGSAGGALLLFEEGRRLRYETPEEAEELAAAVRAESGRPDLRISLRELSPEELPSAGGSAGGSAGG [r7_839_JUSTAS]
SAGGSAGGSAGGPPVPYKIKSPNGRPFPVQINPDSGQIEIEFPGETRKIPLGMNWEIEPVSAGGSAGGSAGG [r7_434_TrROS]
SAGGSAGGSAGNMEPVPTFELPHDDGRPFTIEVYKDPPMIRVEFPGKPRTMPAEEIKKLISAGGSAGGSAGG [r11_370_TrROS]
SAGGSTYTVTRTEELPDGTVRAELTVTLDGAPVPATGTTETAPGGRRRVTVTFPSDPSLSLTTPEESAGGSA [r2_376_JUSTAS]
SAPDLGSGTLLTTESRAVTDPEGNTTWVTRPVVVPVEREYFVTDPETGEWAPLSTYDPATGTLHDPNHHSAG [r14_122_JUSTAS]
SAGGSAGGSAGNKPIMIKAEFPGNGREVEFPIRSPEQAKEFAKRLANQPGFPIKDVDIYPSAGGSAGGSAGG [r11_951_TrROS]
SAGGMTSTFRFSDSRGRLSVEKITPETGKVTVVEQGPSSPRRSTLNASPEEAFQQLKDANDFPASRLESAGG [r13_141_JUSTAS]
SAMPPGAIVKVKIISKERRIDNELGVEVVGYTEKEEDVKVLEVKEPGEKVELKLEIPNLPEGSELELGFSAG [r14_412_TrMRF]
SAGGPMWQVRLRDPDGKKRTINIQQTNGNMYVRIQDKDGEPVKEHPVDSAEEALDKLEDHGYKVEVYPSAGG [r13_315_TrROS]
SAGGSAGGSAGGSSAQIPFPDDGAWIMIDWDPEGRPKVKVHNPDNGEEIEFPPGAPIKISAGGSAGGSAGGS [r4_158_TrROS]
SAGGSAGGSANVEVHPNPDGHVMVKIEMRMYRYDPDGKPKGPVEIKRSIHVDSPEEAKEFFSAGGSAGGSAG [r3_232_TrROS]
SAGGSASSMVSSLPLKVDPKEKARAEAEKLAEEKLEEEPDLEGTVEVELEMETPDKKIKVRLEIKKSAGGSA [r15_729_JUSTAS]
SAGGSAGGSVKDKNGTPYSVKEAKEKKLPNGTLVIELTLPESGKKITIPKKDIPKGISSEAKLKSAGGSAGG [r6_371_JUSTAS]
